T1: EsCas13d, nuclease-dead (Eubacterium siraeum, UniProt B0MS50, R295A;H300A;R849A;H854A)
T1 sequence: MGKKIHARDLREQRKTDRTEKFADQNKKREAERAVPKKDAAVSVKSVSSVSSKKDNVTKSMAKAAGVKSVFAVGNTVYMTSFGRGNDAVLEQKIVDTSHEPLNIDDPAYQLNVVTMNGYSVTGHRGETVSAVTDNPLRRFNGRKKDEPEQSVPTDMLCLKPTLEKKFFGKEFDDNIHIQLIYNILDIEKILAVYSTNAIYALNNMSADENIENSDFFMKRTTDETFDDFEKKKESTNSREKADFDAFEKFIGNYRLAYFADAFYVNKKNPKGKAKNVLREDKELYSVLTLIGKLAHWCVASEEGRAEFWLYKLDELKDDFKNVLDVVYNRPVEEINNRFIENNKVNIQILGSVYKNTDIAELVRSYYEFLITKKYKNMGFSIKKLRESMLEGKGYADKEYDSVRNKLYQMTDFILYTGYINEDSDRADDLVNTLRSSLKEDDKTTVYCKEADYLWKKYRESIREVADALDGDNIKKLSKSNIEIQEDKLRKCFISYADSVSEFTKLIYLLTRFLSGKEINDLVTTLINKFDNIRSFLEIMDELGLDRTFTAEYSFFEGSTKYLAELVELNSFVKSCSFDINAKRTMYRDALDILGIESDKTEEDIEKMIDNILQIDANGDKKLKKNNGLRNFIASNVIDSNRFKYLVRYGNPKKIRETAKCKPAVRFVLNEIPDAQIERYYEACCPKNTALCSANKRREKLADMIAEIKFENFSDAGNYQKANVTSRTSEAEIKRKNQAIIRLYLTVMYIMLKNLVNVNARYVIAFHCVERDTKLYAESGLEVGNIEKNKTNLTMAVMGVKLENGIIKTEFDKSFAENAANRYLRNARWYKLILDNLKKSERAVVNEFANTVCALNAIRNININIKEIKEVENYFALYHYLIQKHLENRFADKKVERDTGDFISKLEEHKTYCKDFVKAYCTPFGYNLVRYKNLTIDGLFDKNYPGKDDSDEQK


Biological target: T1, EsCas13d, nuclease-dead
Assay: crRNA (strand 1, pre-loaded); Mg2+; 40 mM Tris-HCl pH 7.5, 150 mM NaCl, 6 mM MgCl2, 1 mM DTT, 0.1% Tween-20, 0.2 mg/ml BSA; 25 C; 10 min per concentration, then washed
Details: tags: His6-TwinStrep-SUMO cleaved; N-terminal SNAP kept (SNAP-Surface 488); label: 3' end held by stalled T7 RNA polymerase

Binder | Kd
target 1 C4G,A9G (mixed) RNA 1: CACCCGUGCAAAAAUGCAGGGGUCUAAAACUGAGCGGAUAACCUCUCUAUGG RNA 2: GGGAAUGGAUCCACAUCUACGAAUUCGUACCAUAGAGAGGUUGUCCGGUCACCGAGAUCGGAAGAGCACACGU | 3.9 ± 0.34 nM
target 1 C6A,G17A (mixed) RNA 1: CACCCGUGCAAAAAUGCAGGGGUCUAAAACUGAGCGGAUAACCUCUCUAUGG RNA 2: GGGAAUGGAUCCACAUCUACGAAUUCGUACCAUAAAGAGGUUAUCAGCUCACCGAGAUCGGAAGAGCACACGU | 37.8 ± 2.4 nM
target 1 A1C,A18C (mixed) RNA 1: CACCCGUGCAAAAAUGCAGGGGUCUAAAACUGAGCGGAUAACCUCUCUAUGG RNA 2: GGGAAUGGAUCCACAUCUACGAAUUCGUACCAUCGAGAGGUUAUCCGCUCCCCGAGAUCGGAAGAGCACACGU | 75 ± 29 nM
target 1 insU 3' of 17,insC 3' of 16 (mixed) RNA 1: CACCCGUGCAAAAAUGCAGGGGUCUAAAACUGAGCGGAUAACCUCUCUAUGG RNA 2: GGGAAUGGAUCCACAUCUACGAAUUCGUACCAUAGUACGAGGUUAUCCGCUCACCGAGAUCGGAAGAGCACACGU | 91 ± 20 nM
target 1 insG 3' of 8,insC 3' of 3 (mixed) RNA 1: CACCCGUGCAAAAAUGCAGGGGUCUAAAACUGAGCGGAUAACCUCUCUAUGG RNA 2: GGGAAUGGAUCCACAUCUACGAAUUCGUACCAUAGAGAGGUUAUGCCGCUCCACCGAGAUCGGAAGAGCACACGU | 12.7 ± 0.6 nM
target 1 insU 3' of 13,insC 3' of 8 (mixed) RNA 1: CACCCGUGCAAAAAUGCAGGGGUCUAAAACUGAGCGGAUAACCUCUCUAUGG RNA 2: GGGAAUGGAUCCACAUCUACGAAUUCGUACCAUAGAGAGUGUUAUCCCGCUCACCGAGAUCGGAAGAGCACACGU | 14.7 ± 1.6 nM
target 1 insU 3' of 18,insC 3' of 15 (mixed) RNA 1: CACCCGUGCAAAAAUGCAGGGGUCUAAAACUGAGCGGAUAACCUCUCUAUGG RNA 2: GGGAAUGGAUCCACAUCUACGAAUUCGUACCAUAUGAGCAGGUUAUCCGCUCACCGAGAUCGGAAGAGCACACGU | 49 ± 5 nM
target 1 A18C (mixed) RNA 1: CACCCGUGCAAAAAUGCAGGGGUCUAAAACUGAGCGGAUAACCUCUCUAUGG RNA 2: GGGAAUGGAUCCACAUCUACGAAUUCGUACCAUCGAGAGGUUAUCCGCUCACCGAGAUCGGAAGAGCACACGU | 51.3 ± 3.5 nM
target 1 G5C,C6G (mixed) RNA 1: CACCCGUGCAAAAAUGCAGGGGUCUAAAACUGAGCGGAUAACCUCUCUAUGG RNA 2: GGGAAUGGAUCCACAUCUACGAAUUCGUACCAUAGAGAGGUUAUCGCCUCACCGAGAUCGGAAGAGCACACGU | 10.9 ± 0.6 nM
target 1 insU 3' of 18,insU 3' of 17 (mixed) RNA 1: CACCCGUGCAAAAAUGCAGGGGUCUAAAACUGAGCGGAUAACCUCUCUAUGG RNA 2: GGGAAUGGAUCCACAUCUACGAAUUCGUACCAUAUGUAGAGGUUAUCCGCUCACCGAGAUCGGAAGAGCACACGU | 47 ± 8 nM
target 1 C7A,C22G (mixed) RNA 1: CACCCGUGCAAAAAUGCAGGGGUCUAAAACUGAGCGGAUAACCUCUCUAUGG RNA 2: GGGAAUGGAUCCACAUCUACGAAUUCGUAGCAUAGAGAGGUUAUACGCUCACCGAGAUCGGAAGAGCACACGU | 41 ± 6 nM
target 1 insC 3' of 14,insG 3' of 14 (mixed) RNA 1: CACCCGUGCAAAAAUGCAGGGGUCUAAAACUGAGCGGAUAACCUCUCUAUGG RNA 2: GGGAAUGGAUCCACAUCUACGAAUUCGUACCAUAGAGACGGGUUAUCCGCUCACCGAGAUCGGAAGAGCACACGU | 50 ± 6 nM
target 1 U3G,A20U (mixed) RNA 1: CACCCGUGCAAAAAUGCAGGGGUCUAAAACUGAGCGGAUAACCUCUCUAUGG RNA 2: GGGAAUGGAUCCACAUCUACGAAUUCGUACCUUAGAGAGGUUAUCCGCGCACCGAGAUCGGAAGAGCACACGU | 38 ± 4 nM
target 1 A16G,C21U (mixed) RNA 1: CACCCGUGCAAAAAUGCAGGGGUCUAAAACUGAGCGGAUAACCUCUCUAUGG RNA 2: GGGAAUGGAUCCACAUCUACGAAUUCGUACUAUAGGGAGGUUAUCCGCUCACCGAGAUCGGAAGAGCACACGU | 7.65 ± 0.33 nM
target 1 C7G,A16G (mixed) RNA 1: CACCCGUGCAAAAAUGCAGGGGUCUAAAACUGAGCGGAUAACCUCUCUAUGG RNA 2: GGGAAUGGAUCCACAUCUACGAAUUCGUACCAUAGGGAGGUUAUGCGCUCACCGAGAUCGGAAGAGCACACGU | 34 ± 4 nM
target 1 insC 3' of 20,insU 3' of 6 (mixed) RNA 1: CACCCGUGCAAAAAUGCAGGGGUCUAAAACUGAGCGGAUAACCUCUCUAUGG RNA 2: GGGAAUGGAUCCACAUCUACGAAUUCGUACCACUAGAGAGGUUAUCCUGCUCACCGAGAUCGGAAGAGCACACGU | 11.3 ± 0.9 nM
target 1 A1U,A18C (mixed) RNA 1: CACCCGUGCAAAAAUGCAGGGGUCUAAAACUGAGCGGAUAACCUCUCUAUGG RNA 2: GGGAAUGGAUCCACAUCUACGAAUUCGUACCAUCGAGAGGUUAUCCGCUCUCCGAGAUCGGAAGAGCACACGU | 66 ± 12 nM
target 1 C2A,G13U (mixed) RNA 1: CACCCGUGCAAAAAUGCAGGGGUCUAAAACUGAGCGGAUAACCUCUCUAUGG RNA 2: GGGAAUGGAUCCACAUCUACGAAUUCGUACCAUAGAGAUGUUAUCCGCUAACCGAGAUCGGAAGAGCACACGU | 49 ± 8 nM
target 1 G5C,G17A (mixed) RNA 1: CACCCGUGCAAAAAUGCAGGGGUCUAAAACUGAGCGGAUAACCUCUCUAUGG RNA 2: GGGAAUGGAUCCACAUCUACGAAUUCGUACCAUAAAGAGGUUAUCCCCUCACCGAGAUCGGAAGAGCACACGU | 79 ± 28 nM
target 1 insA 3' of 7,insG 3' of 1 (mixed) RNA 1: CACCCGUGCAAAAAUGCAGGGGUCUAAAACUGAGCGGAUAACCUCUCUAUGG RNA 2: GGGAAUGGAUCCACAUCUACGAAUUCGUACCAUAGAGAGGUUAUCACGCUCAGCCGAGAUCGGAAGAGCACACGU | 6.8 ± 0.4 nM
target 1 insU 3' of 9,insU 3' of 2 (mixed) RNA 1: CACCCGUGCAAAAAUGCAGGGGUCUAAAACUGAGCGGAUAACCUCUCUAUGG RNA 2: GGGAAUGGAUCCACAUCUACGAAUUCGUACCAUAGAGAGGUUAUUCCGCUCUACCGAGAUCGGAAGAGCACACGU | 20.2 ± 1 nM
target 1 C4U,G5U (mixed) RNA 1: CACCCGUGCAAAAAUGCAGGGGUCUAAAACUGAGCGGAUAACCUCUCUAUGG RNA 2: GGGAAUGGAUCCACAUCUACGAAUUCGUACCAUAGAGAGGUUAUCCUUUCACCGAGAUCGGAAGAGCACACGU | 49 ± 4 nM
target 1 A1C,A20C (mixed) RNA 1: CACCCGUGCAAAAAUGCAGGGGUCUAAAACUGAGCGGAUAACCUCUCUAUGG RNA 2: GGGAAUGGAUCCACAUCUACGAAUUCGUACCCUAGAGAGGUUAUCCGCUCCCCGAGAUCGGAAGAGCACACGU | 32 ± 4 nM
target 1 insC 3' of 18,insU 3' of 5 (mixed) RNA 1: CACCCGUGCAAAAAUGCAGGGGUCUAAAACUGAGCGGAUAACCUCUCUAUGG RNA 2: GGGAAUGGAUCCACAUCUACGAAUUCGUACCAUACGAGAGGUUAUCCGUCUCACCGAGAUCGGAAGAGCACACGU | 84 ± 31 nM
target 1 C2U,A20C (mixed) RNA 1: CACCCGUGCAAAAAUGCAGGGGUCUAAAACUGAGCGGAUAACCUCUCUAUGG RNA 2: GGGAAUGGAUCCACAUCUACGAAUUCGUACCCUAGAGAGGUUAUCCGCUUACCGAGAUCGGAAGAGCACACGU | 31.4 ± 1.6 nM
target 1 C7U,G12U (mixed) RNA 1: CACCCGUGCAAAAAUGCAGGGGUCUAAAACUGAGCGGAUAACCUCUCUAUGG RNA 2: GGGAAUGGAUCCACAUCUACGAAUUCGUACCAUAGAGAGUUUAUUCGCUCACCGAGAUCGGAAGAGCACACGU | 13.4 ± 1.1 nM
target 1 A1G,A18C (mixed) RNA 1: CACCCGUGCAAAAAUGCAGGGGUCUAAAACUGAGCGGAUAACCUCUCUAUGG RNA 2: GGGAAUGGAUCCACAUCUACGAAUUCGUACCAUCGAGAGGUUAUCCGCUCGCCGAGAUCGGAAGAGCACACGU | 62 ± 8 nM
target 1 U3G,A14G (mixed) RNA 1: CACCCGUGCAAAAAUGCAGGGGUCUAAAACUGAGCGGAUAACCUCUCUAUGG RNA 2: GGGAAUGGAUCCACAUCUACGAAUUCGUACCAUAGAGGGGUUAUCCGCGCACCGAGAUCGGAAGAGCACACGU | 12.9 ± 1.2 nM
